Assay results published in the supplement of paper PMC12764529.
± gives the half width of the 95% confidence interval.

Legend:
[1] = folding stability dG unfold from trypsin proteolysis; higher = more stable
Outline: (§1)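 Designed mini-proteins (under 80 residues, no cysteine) in a PA-tagged cDNA display construct were digested with trypsin and chymotrypsin. Each protease was used at 11 concentrations (threefold dilutions) plus a no-protease condition, followed by sequencing. K50 was inferred by Bayesian fitting of sequencing counts, and unfolding free energy was derived against a sequence-predicted unfolded-state K50 and a shared folded-state K50, per protease or combined. Only designs with AlphaFold2 dimer inter-PAE above 15 were kept.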

[2] = folding stability dG unfold (combined trypsin and chymotrypsin); higher = more stable
Outline: as §1

[3] = folding stability dG unfold from chymotrypsin proteolysis; higher = more stable
Outline: as §1

Sequence	folding stability dG unfold [1]	folding stability dG unfold [2]	folding stability dG unfold [3]
SAGGSAGGSAGGSPLPGQPPEVILIKLDKPVKVGQTITLPDGYKLEVNEETGYLLIVKTSAGGSAGGSAGGS [r4_78_TrROS_Hall]	0.705 ± 0.05 kcal/mol	0.843 ± 0.051 kcal/mol	0.992 ± 0.081 kcal/mol
SAGGSAGGSAGGSPLVIKVDGPAEKLIEEIKKLFPNAKVLSIETHPDGGVTLVVEKIDESAGGSAGGSAGGS [r4_95_TrMRF]	1.38 ± 0.07 kcal/mol	2.03 ± 0.15 kcal/mol	2.35 ± 0.069 kcal/mol
SAGGSAGGSAGGSPNPLLPPVRPKVILKDPKTGTTKTFTTEEEAKKAVESGEYTVLKIESAGGSAGGSAGGS [r10_520_JUSTAS]	-0.0844 ± 0.066 kcal/mol	0.217 ± 0.058 kcal/mol	0.353 ± 0.11 kcal/mol
SAGGSAGGSAGGSPPNMEPVETQEYQIGNDFIIKVDTYRMPDPDMYFVDIEITPDALKASAGGSAGGSAGGS [r4_163_TrROS]	0.82 ± 0.12 kcal/mol	1.28 ± 0.3 kcal/mol	1.82 ± 0.17 kcal/mol
SAGGSAGGSAGGSSDIVVTSETLPGPTRLVRITIPEKGETIELTLPASESIEQAVALLLSAGGSAGGSAGGS [r4_393_JUSTAS]	0.253 ± 0.1 kcal/mol	0.381 ± 0.16 kcal/mol	0.0828 ± 0.4 kcal/mol
SAGGSAGGSAGGSSIRIWIFFPGYFFRITIKPDPGNPNMIKIDITEIIPPDQMDDEDLISAGGSAGGSAGGS [r4_316_TrROS]	3.53 ± 0.26 kcal/mol	4.38 ± 0.3 kcal/mol	4.38 ± 0.14 kcal/mol
SAGGSAGGSAGGSSMSISVLEVRELPNGTLEITTVDYNPDNGYTTTTTYTLPPGQPLLISAGGSAGGSAGGS [r4_133_JUSTAS]	1.8 ± 0.053 kcal/mol	1.74 ± 0.068 kcal/mol	1.62 ± 0.045 kcal/mol
SAGGSAGGSAGGSSSIYYDPRYPNVAVNPETGEAVTGIPLEELEKLGATPVGPDWVRIDSAGGSAGGSAGGS [r4_306_TrMRF]	-0.659 ± 0.15 kcal/mol	-0.0656 ± 0.13 kcal/mol	0.196 ± 0.061 kcal/mol
SAGGSAGGSAGGSSSSASVEVKTETSVSYDPSTGRTYTTTTSKYPLTNTTVTTTTTDPTSAGGSAGGSAGGS [r10_187_JUSTAS]	0.955 ± 0.03 kcal/mol	0.621 ± 0.17 kcal/mol	0.139 ± 0.15 kcal/mol
SAGGSAGGSAGGSSTAVIRRPETGEEHTFDLPEDATEEDIRARLEAAGFPPGSEIVEIVESAGGSAGGSAGG [r7_70_JUSTAS]	1.21 ± 0.067 kcal/mol	1.66 ± 0.035 kcal/mol	1.91 ± 0.048 kcal/mol
SAGGSAGGSAGGSSVKLTLPDGSQVTVDIHPDGTATVTTFPGDTPSVTNMPVSAFQAALPSAGGSAGGSAGG [r7_178_JUSTAS]	1.72 ± 0.44 kcal/mol	2.08 ± 0.53 kcal/mol	1.79 ± 0.21 kcal/mol
SAGGSAGGSAGGSTILILDPETKKLYLIRIEKREDGKEELKLKVYEFDLKTGEMKEYELSAGGSAGGSAGGS [r10_1041_TrROS_Hall]	3.25 ± 0.2 kcal/mol	4.15 ± 0.19 kcal/mol	4.68 ± 0.19 kcal/mol
SAGGSAGGSAGGSTITLRIEGLSKEEIEELARKLGAKVVSFDEKNKTVTIELPPGAKLLSAGGSAGGSAGGS [r4_3_TrROS_Hall]	1.88 ± 0.054 kcal/mol	2.09 ± 0.084 kcal/mol	2.19 ± 0.044 kcal/mol
SAGGSAGGSAGGSTPSFTPVLELEFEFENDVVVRVRLYRLPDEDTYLLEVEVAPDSLKDSAGGSAGGSAGGS [r4_163_TrMRF]	2.88 ± 0.093 kcal/mol	3.62 ± 0.13 kcal/mol	4.11 ± 0.1 kcal/mol
SAGGSAGGSAGGSVIEVKDPNGKKYIIIKTPDPNVYPVTVIPPDGTTTVTPVSDYSKLLSSAGGSAGGSAGG [r7_769_JUSTAS]	-0.893 ± 0.4 kcal/mol	-0.527 ± 0.42 kcal/mol	-0.464 ± 0.56 kcal/mol
SAGGSAGGSAGGSVSELPPISTKTTTTVTTTSDGTKVVYTTTTYSDGTTTTTSGPVPAASAGGSAGGSAGGS [r10_682_JUSTAS]	0.565 ± 0.049 kcal/mol	1.09 ± 0.13 kcal/mol	1.14 ± 0.067 kcal/mol
SAGGSAGGSAGGSVSSVSTTSSPVVDPETGPASTVTTHSVPGGPATTVVMTPDSTTTTGSAGGSAGGSAGGS [r10_384_JUSTAS]	1.92 ± 0.081 kcal/mol	1.59 ± 0.074 kcal/mol	1.43 ± 0.038 kcal/mol
SAGGSAGGSAGGSVSVNIPLEELKERVPPSLSVSVSPTPVPEGGGVRVPVTLTSPAELGSAGGSAGGSAGGS [r4_119_JUSTAS]	1 ± 0.031 kcal/mol	0.763 ± 0.041 kcal/mol	0.471 ± 0.025 kcal/mol
SAGGSAGGSAGGSVYIDPDKGYLVMWNEEDGYIVKYPIDPPNKIPSVDIEPIPPGDPLFSAGGSAGGSAGGS [r4_409_TrROS]	1.51 ± 0.074 kcal/mol	1.26 ± 0.11 kcal/mol	1.13 ± 0.07 kcal/mol
SAGGSAGGSAGGSWLVRIPGHPIIFKGPEDQAEGIARELQKNGKPIEIEIIDPDEMKKFSAGGSAGGSAGGS [r4_131_TrROS]	0.286 ± 0.12 kcal/mol	0.643 ± 0.23 kcal/mol	1.12 ± 0.14 kcal/mol
SAGGSAGGSAGGSYTVSEIPEEGLVLKTLPNGVVTRYKVSPDGSLEEIATFEPGNGVLIKSAGGSAGGSAGG [r7_659_JUSTAS]	-0.0116 ± 0.3 kcal/mol	0.766 ± 0.11 kcal/mol	1.1 ± 0.096 kcal/mol

Sequence	folding stability dG unfold [1]	folding stability dG unfold [2]	folding stability dG unfold [3]
SAGGSAGGSAGGTAEAVRKLAEEFSQQHGMPIKDVEVQRPPNKWKPVIRYPDNGKWIEISAGGSAGGSAGGS [r10_161_TrROS]	0.298 ± 0.086 kcal/mol	0.388 ± 0.2 kcal/mol	0.465 ± 0.13 kcal/mol
SAGGSAGGSAGGTAEEIKEAIEELGYKVEVEVTDDAVKIRLELPNGEKFEFEIPKEALESAGGSAGGSAGGS [r10_1029_TrMRF]	2.3 ± 0.22 kcal/mol	1.99 ± 0.16 kcal/mol	1.92 ± 0.11 kcal/mol
SAGGSAGGSAGGTAEIYFPNFPIRIDSVQLSPEKNHVQVSMENPDGPPVKGTMPPKDGILSAGGSAGGSAGG [r7_427_TrROS]	1.58 ± 0.031 kcal/mol	0.903 ± 0.042 kcal/mol	-0.127 ± 0.027 kcal/mol
SAGGSAGGSAGGTITLPGGAEVTEVERLPGGVLKITGVLTLPGGPVTVEVTLPVTPELLESAGGSAGGSAGG [r7_38_JUSTAS]	0.772 ± 0.034 kcal/mol	1.03 ± 0.099 kcal/mol	1.03 ± 0.049 kcal/mol
SAGGSAGGSAGGTKTYTITNEDGSKITIEEVDGKYVITYPNGEKKEIEGMTLEELLKALSAGGSAGGSAGGS [r10_569_TrROS_Hall]	4.22 ± 0.58 kcal/mol	4.35 ± 0.18 kcal/mol	4.26 ± 0.21 kcal/mol
SAGGSAGGSAGGTPIAETEVSEDPATGKLITTSKSPTDPKVYVTTTDLATGVPTTTPLLSAGGSAGGSAGGS [r10_1034_JUSTAS]	0.761 ± 0.031 kcal/mol	0.524 ± 0.064 kcal/mol	0.213 ± 0.047 kcal/mol
SAGGSAGGSAGGVDPTPDGILRVRVVIKDPNGDVFSEKEVEMTPEELEALKKAGYVILESAGGSAGGSAGGS [r10_749_JUSTAS]	1.43 ± 0.033 kcal/mol	1.82 ± 0.054 kcal/mol	2.022 ± 0.018 kcal/mol
SAGGSAGGSAGGVIVLKSDNSVIIITKKVYTENGKPKKTIIEKKNLKKKPPKPLSIEIISAGGSAGGSAGGS [r10_1043_JUSTAS]	0.77 ± 0.067 kcal/mol	0.681 ± 0.15 kcal/mol	0.374 ± 0.27 kcal/mol
SAGGSAGGSAGGVKYLTLTLPDGTVIKVPVDEPVEIRGEDGRPVEIVEAKVTEGPPGLGSAGGSAGGSAGGS [r10_20_JUSTAS]	0.963 ± 0.042 kcal/mol	1.94 ± 0.072 kcal/mol	2.326 ± 0.021 kcal/mol
SAGGSAGGSAGGVPEDVIMSPVSTTLVEKEVLSTEVTPEGAPKTVEKVLIVEKTLEPLLSAGGSAGGSAGGS [r10_758_JUSTAS]	0.0499 ± 0.05 kcal/mol	-0.429 ± 0.29 kcal/mol	-0.853 ± 0.24 kcal/mol
SAGGSAGGSAGGVPPGAPELRLKVTVTVTTVELDEDTNELTTTTETVTVEVTVKVGETLSAGGSAGGSAGGS [r10_133_TrROS_Hall]	0.616 ± 0.11 kcal/mol	1.2 ± 0.18 kcal/mol	1.17 ± 0.09 kcal/mol
SAGGSAGGSAGGVPRLERFTLSPNGLPVRIFVDGDRALVVFEGPDGGLAVATFAVSDIPFSAGGSAGGSAGG [r7_653_TrMRF]	0.857 ± 0.03 kcal/mol	1.31 ± 0.064 kcal/mol	1.62 ± 0.047 kcal/mol
SAGGSAGGSAGGVSPEANIKEVSKDPKTGLTTSLAKDPNSDNEITITKDSSGNSSINISSAGGSAGGSAGGS [r10_450_JUSTAS]	0.121 ± 0.038 kcal/mol	0.813 ± 0.073 kcal/mol	1.08 ± 0.029 kcal/mol
SAGGSAGGSAGGWIFIIEIDPDNGEIKINWPNGNSIKIPPEDLDNMPIEIKPIPPPPNDKSAGGSAGGSAGG [r7_99_TrROS]	1.83 ± 0.19 kcal/mol	1.87 ± 0.28 kcal/mol	1.88 ± 0.097 kcal/mol
SAGGSAGGSAGGWVIRVTIKHPNGKKRTIMIPMPPDNIEEVAKNLMPQGYEIKEPEIFPGSAGGSAGGSAGG [r7_159_TrROS]	0.295 ± 0.12 kcal/mol	0.813 ± 0.26 kcal/mol	0.902 ± 0.36 kcal/mol
SAGGSAGGSAGGYLEAPIVIKIEFQIYDPDDGDPIATYEHTIMIPIEIELPPPPDPDNDSAGGSAGGSAGGS [r10_50_TrROS]	1.97 ± 0.21 kcal/mol	2.18 ± 0.23 kcal/mol	2.28 ± 0.17 kcal/mol
SAGGSAGGSAGGYVGPDQPVIIVEVKVKGARIGKDGKIYYDFEVERIEIREVEEGDNLGSAGGSAGGSAGGS [r10_826_TrMRF]	2.05 ± 0.21 kcal/mol	1.82 ± 0.17 kcal/mol	1.9 ± 0.088 kcal/mol
SAGGSAGGSAGIDPPDIKLRVESELGPGPVRRLLVYLEGPGELVLVDVPADGSVSVSIFPSAGGSAGGSAGG [r11_55_TrMRF]	2.85 ± 0.18 kcal/mol	2.9 ± 0.23 kcal/mol	2.9 ± 0.28 kcal/mol
SAGGSAGGSAGIGSKKPVIKKNIEIEPEIKVEGGKGGSKVKIEYKAKIEIKVYIISKNNPSAGGSAGGSAGG [r17_186_TrMRF]	1.28 ± 0.22 kcal/mol	1.98 ± 0.4 kcal/mol	2.15 ± 0.13 kcal/mol
SAGGSAGGSAGIKIEWEQMPGGYMQYKVTIPDPNGKPLKIDVHYKSPEDAEEKAKELLKSSAGGSAGGSAGG [r11_819_TrROS]	0.215 ± 0.089 kcal/mol	0.333 ± 0.2 kcal/mol	0.386 ± 0.26 kcal/mol
SAGGSAGGSAGITIWFPYDNIPEILEEAQKNGMEIKSVERVPDGWYLIKMPGKPIEIHIWSAGGSAGGSAGG [r17_379_TrROS]	0.94 ± 0.032 kcal/mol	1.33 ± 0.07 kcal/mol	1.55 ± 0.06 kcal/mol
